Data as given in patent publication US20110165156A1.

How the values were obtained:
Assay in all cases: cell-based or functional assay
[1] = biological target: human wildtype CSF-1R (wt CSF-1R), full-length, on cells (human) (UniProt P07333)
[2] = biological target: human mutant CSF-1R L301S Y969F, on cells (human) (UniProt P07333)
[3] = biological target: CSF-1R of cynomolgous monocytes (cynomolgous)

Row | Substance | wtCSF-1R IC30 (cell viability, 3D culture, CellTiterGlo) [1] | % inhibition at 20 µg/ml, mutant CSF-1R cells [2] | Mutant CSF-1R IC30 (cell viability, 3D culture, CellTiterGlo) [2] | wtCSF-1R IC50 (cell viability, 3D culture, CellTiterGlo) [1] | % inhibition (of survival) = (100% - % survival) [3] | % survival (cynomolgous monocytes, 5 µg/ml antibody) [3] | Mutant CSF-1R IC50 (cell viability, 3D culture, CellTiterGlo) [2]
1 | goat polyclonal anti-CSF-1R antibody ab10676 (abcam) | 14.2 µg/mL | 0% | > 20 µg/mL |  |  |  | 
2 | Anti CSF-1R SC 2-4A5 (Santa Cruz Biotechnology, US) (antibody) | 16.6 µg/mL |  | 2.56 µg/mL | 10 µg/mL | 69% | 31% | 10 µg/mL
